Data reported in patent publication US20150328329A1, “LIGANDS THAT TARGET HCV-E2 BINDING SITES ON CD81 AND THERAPEUTIC METHODS USING THEM” (American University of Cairo, priority 2012, published 2015).

What was measured:
[1] = molecular target: recombinant CD81-LEL protein (large extracellular loop of human CD81) with a GST tag (human) (UniProt P60033); assay: DPI, E2 protein alone added to immobilised CD81
[2] = molecular target: recombinant CD81-LEL protein (large extracellular loop of human CD81) with a GST tag (human) (UniProt P60033); assay: DPI, E2 protein added to immobilised CD81 together with small molecule 30930
[3] = molecular target: recombinant CD81-LEL protein (large extracellular loop of human CD81) with a GST tag (human) (UniProt P60033); assay: DPI, E2 protein added to immobilised CD81 together with small molecule 93033
[4] = molecular target: recombinant CD81-LEL protein (large extracellular loop of human CD81) with a GST tag (human) (UniProt P60033); assay: DPI, E2 protein added to immobilised CD81 together with small molecule 165665
[5] = molecular target: recombinant CD81-LEL protein (large extracellular loop of human CD81) with a GST tag (human) (UniProt P60033); assay: DPI, E2 protein added to immobilised CD81 together with small molecule 689002
[6] = molecular target: recombinant CD81-LEL protein (large extracellular loop of human CD81) with a GST tag (human) (UniProt P60033); assay: DPI, E2 protein added to immobilised CD81 together with small molecules 93033 and 16631
[7] = molecular target: recombinant CD81-LEL protein (large extracellular loop of human CD81) with a GST tag (human) (UniProt P60033); assay: DPI, E2 protein added to immobilised CD81 together with small molecules 689002 and 93033
[8] = molecular target: recombinant CD81-LEL protein (large extracellular loop of human CD81) with a GST tag (human) (UniProt P60033); assay: DPI, E2 protein added to immobilised CD81 together with small molecules 93033 and 165665
[9] = molecular target: recombinant CD81-LEL protein (large extracellular loop of human CD81) with a GST tag (human) (UniProt P60033); assay: DPI, E2 protein added to immobilised CD81 together with small molecules 30930 and 68365 (so in the source)

HCV E2 protein (ligand)
DPI Binding Response (Radians) [1]: 4.14 Radians
DPI Binding Response (Radians) [2]: 2.53 Radians
DPI Binding Response (Radians) [3]: 0.255 Radians
DPI Binding Response (Radians) [4]: -0.0047 Radians
DPI Binding Response (Radians) [5]: 2.7 Radians
DPI Binding Response (Radians) [6]: 0.531 Radians
DPI Binding Response (Radians) [7]: 0.401 Radians
DPI Binding Response (Radians) [8]: 0.765 Radians
DPI Binding Response (Radians) [9]: 1.45 Radians
